Values belong to the binder of their own block, whether it stands above or below them.
B4: ATG9A (human) (other, UniProt Q7Z3C6 1-839, looked up)
chain: MAQFDTEYQRLEASYSDSPPGEEDLLVHVAEGSKSPWHHIENLDLFFSRVYNLHQKNGFTCMLIGEIFELMQFLFVVAFTTFLVSCVDYDILFANKMVNHSLHPTEPVKVTLPDAFLPAQVCSARIQENGSLITILVIAGVFWIHRLIKFIYNICCYWEIHSFYLHALRIPMSALPYCTWQEVQARIVQTQKEHQICIHKRELTELDIYHRILRFQNYMVALVNKSLLPLRFRLPGLGEAVFFTRGLKYNFELILFWGPGSLFLNEWSLKAEYKRGGQRLELAQRLSNRILWIGIANFLLCPLILIWQILYAFFSYAEVLKREPGALGARCWSLYGRCYLRHFNELEHELQSRLNRGYKPASKYMNCFLSPLLTLLAKNGAFFAGSILAVLIALTIYDEDVLAVEHVLTTVTLLGVTVTVCRSFIPDQHMVFCPEQLLRVILAHIHYMPDHWQGNAHRSQTRDEFAQLFQYKAVFILEELLSPIVTPLILIFCLRPRALEIIDFFRNFTVEVVGVGDTCSFAQMDVRQHGHPQWLSAGQTEASVYQQAEDGKTELSLMHFAITNPGWQPPRESTAFLGFLKEQVQRDGAAASLAQGGLLPENALFTSIQSLQSESEPLSLIANVVAGSSCRGPPLPRDLQGSRHRAEVASALRSFSPLQPGQAPTGRAHSTMTGSGVDARTASSGSSVWEGQLQSLVLSEYASTEMSLHALYMHQLHKQQAQAEPERHVWHRRESDESGESAPDEGGEGARAPQSIPRSASYPCAAPRPGAPETTALHGGFQRRYGGITDPGTVPRVPSHFSRLPLGGWAEDGQSASRHPEPVPEEGSEDELPPQVHKV
notes: Transmembrane protein; co-IP from RIPA lysates; Tagged and endogenous human forms kept under one id; also called Flag-ATG9A; HA-ATG9A

Assays:
[1] = biological target: T1, Beclin 2 (human, full length) (human, UniProt A8MW95 1-431); test: co-IP with anti-Flag beads and immunoblot; HEK293T cells co-transfected with HA-Beclin 2 and a Flag-tagged plasmid (FIG. 25A)
T1 construct: All tagged and endogenous human forms are kept under this one id; the form used is named under assay; also called BECN2; Flag-Beclin 2
T1 sequence: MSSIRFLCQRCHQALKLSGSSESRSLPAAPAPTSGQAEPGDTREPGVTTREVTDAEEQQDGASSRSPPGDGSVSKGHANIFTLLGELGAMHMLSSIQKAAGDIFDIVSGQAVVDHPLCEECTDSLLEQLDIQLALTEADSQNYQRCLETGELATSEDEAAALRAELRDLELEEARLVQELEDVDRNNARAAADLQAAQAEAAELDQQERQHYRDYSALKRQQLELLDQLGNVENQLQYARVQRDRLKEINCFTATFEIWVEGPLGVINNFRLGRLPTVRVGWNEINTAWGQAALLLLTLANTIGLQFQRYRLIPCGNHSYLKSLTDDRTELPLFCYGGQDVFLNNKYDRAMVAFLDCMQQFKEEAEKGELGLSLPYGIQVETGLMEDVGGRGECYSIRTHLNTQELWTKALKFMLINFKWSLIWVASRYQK

ATG9A (human) = biological target: B4; test: co-IP with anti-Flag beads; WT, BECN2 KO and ULK1 KO HEK293T cells co-transfected with HA-ATG9A and Flag-AIM2 (FIG. 30D)
Description: Pearson's correlation coefficient for colocalization was analyzed using Image J Coloc 2. Graph represents mean±s.e.m. (at least 30 cells were analyzed per condition). Representative images showing the colocalization were obtained using confocal microscopy. Scale bar: 5 μm. […] Pearson's correlation coefficient for colocalization was analyzed using Image J Coloc 2. Graph represents mean±s.e.m. (at least 30 cells were analyzed per condition). Representative images showing the colocalization were obtained using confocal microscopy. Scale bar: 5 μm. […] Data are representative of at least three independent experiments. […] MVBs, multivesicular bodies.

[2] = biological target: T2, ATG9A (mouse, endogenous in BMDMs) (mouse, UniProt Q68FE2 2-839); test: endogenous co-IP; BMDM lysates (untreated or LPS) immunoprecipitated with MEKK3 antibodies, immunoblot (FIG. 12D)
T2 construct: Endogenous protein in mouse BMDM lysates
T2 sequence (looked up): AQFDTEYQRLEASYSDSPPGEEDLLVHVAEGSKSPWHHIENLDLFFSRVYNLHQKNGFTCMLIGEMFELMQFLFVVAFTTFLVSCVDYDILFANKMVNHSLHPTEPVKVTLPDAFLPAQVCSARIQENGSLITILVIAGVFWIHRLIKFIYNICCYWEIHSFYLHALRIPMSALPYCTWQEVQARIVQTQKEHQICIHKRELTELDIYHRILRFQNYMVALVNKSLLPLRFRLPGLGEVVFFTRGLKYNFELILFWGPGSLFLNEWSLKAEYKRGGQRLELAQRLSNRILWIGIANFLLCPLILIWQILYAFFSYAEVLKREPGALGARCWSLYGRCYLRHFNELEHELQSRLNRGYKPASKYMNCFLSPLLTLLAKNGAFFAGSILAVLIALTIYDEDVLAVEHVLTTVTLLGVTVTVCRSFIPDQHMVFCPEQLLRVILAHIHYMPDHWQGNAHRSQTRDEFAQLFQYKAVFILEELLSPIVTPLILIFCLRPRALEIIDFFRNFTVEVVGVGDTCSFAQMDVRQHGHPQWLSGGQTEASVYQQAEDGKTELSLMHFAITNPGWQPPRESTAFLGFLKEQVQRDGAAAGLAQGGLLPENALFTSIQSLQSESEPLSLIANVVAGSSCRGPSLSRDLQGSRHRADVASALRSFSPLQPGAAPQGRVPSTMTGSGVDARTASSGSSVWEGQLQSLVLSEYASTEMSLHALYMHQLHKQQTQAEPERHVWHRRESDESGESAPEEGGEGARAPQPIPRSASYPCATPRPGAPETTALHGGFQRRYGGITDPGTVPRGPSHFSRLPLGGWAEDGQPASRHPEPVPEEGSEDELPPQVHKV

ULK1 = biological target: T3, ULK1 (human, UniProt O75385 1-1050); test: co-IP with anti-Flag beads and immunoblot; 293T cells transfected with the indicated Flag-tagged plasmid (FIG. 12B)
T3 construct: also called HA-ULK1
T3 sequence (looked up): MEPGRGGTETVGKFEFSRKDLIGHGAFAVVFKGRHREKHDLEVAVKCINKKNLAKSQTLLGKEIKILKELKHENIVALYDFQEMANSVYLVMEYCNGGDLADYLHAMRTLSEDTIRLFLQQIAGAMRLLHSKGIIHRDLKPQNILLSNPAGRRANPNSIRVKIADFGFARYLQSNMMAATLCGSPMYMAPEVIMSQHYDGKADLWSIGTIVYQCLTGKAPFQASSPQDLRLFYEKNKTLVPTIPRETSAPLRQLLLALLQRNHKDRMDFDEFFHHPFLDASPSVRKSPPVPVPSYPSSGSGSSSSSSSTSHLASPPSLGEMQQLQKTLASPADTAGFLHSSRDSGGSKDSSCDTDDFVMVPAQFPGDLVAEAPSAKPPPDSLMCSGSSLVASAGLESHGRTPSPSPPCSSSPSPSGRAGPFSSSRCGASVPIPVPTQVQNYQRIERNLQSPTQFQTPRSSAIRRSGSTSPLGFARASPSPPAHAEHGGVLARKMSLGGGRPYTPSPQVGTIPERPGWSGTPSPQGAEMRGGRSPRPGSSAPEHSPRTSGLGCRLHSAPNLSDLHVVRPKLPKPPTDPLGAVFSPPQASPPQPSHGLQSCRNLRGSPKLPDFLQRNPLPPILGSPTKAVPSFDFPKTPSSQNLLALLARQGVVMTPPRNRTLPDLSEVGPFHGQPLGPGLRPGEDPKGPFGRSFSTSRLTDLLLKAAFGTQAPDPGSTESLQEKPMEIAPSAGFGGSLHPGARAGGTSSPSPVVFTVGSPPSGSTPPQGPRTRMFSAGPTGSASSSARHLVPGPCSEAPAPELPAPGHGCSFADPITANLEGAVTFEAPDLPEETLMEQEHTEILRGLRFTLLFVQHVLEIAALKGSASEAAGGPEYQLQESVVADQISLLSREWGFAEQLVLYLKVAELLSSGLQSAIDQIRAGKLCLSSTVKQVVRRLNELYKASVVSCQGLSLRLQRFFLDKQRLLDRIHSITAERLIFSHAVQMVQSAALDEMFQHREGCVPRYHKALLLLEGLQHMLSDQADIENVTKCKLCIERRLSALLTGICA
Description: Data are representative of at least three independent experiments.
The secondary antibody (Veriblot for IP detection reagent HRP) that only recognized native IgG but not denatured IgG was applied for immunoblotting of proteins in immunoprecipitates. For immunoprecipitation of Flag-tagged proteins, cell lysates were incubated with anti-Flag beads (Sigma) at 4° C. overnight. The beads were washed four times with RIPA lysis buffer, and immunoprecipitates were eluted with 2×SDS loading buffer. Immunoblotting was performed by loading the samples on SDS-PAGE gels, conducting electrophoresis, transferring the samples to PVDF membranes (Bio-Rad), and then incubating the membranes with the indicated antibodies. For all immunoblots, the LumiGLO Chemiluminescent Substrate System from KPL (Gaithersburg, MD) was used for protein detection.

binding result [1]: binds
B1: caspase 1 (enzyme, human, UniProt P29466 1-404, looked up)
chain: MADKVLKEKRKLFIRSMGEGTINGLLDELLQTRVLNKEEMEKVKRENATVMDKTRALIDSVIPKGAQACQICITYICEEDSYLAGTLGLSADQTSGNYLNMQDSQGVLSSFPAPQAVQDNPAMPTSSGSEGNVKLCSLEEAQRIWKQKSAEIYPIMDKSSRTRLALIICNEEFDSIPRRTGAEVDITGMTMLLQNLGYSVDVKKNLTASDMTTELEAFAHRPEHKTSDSTFLVFMSHGIREGICGKKHSEQVPDILQLNAIFNMLNTKNCPSLKDKPKVIIIQACRGDSPGVVWFKDSVGVSGNLSLPTTEEFEDDAIKKAHIEKDFIAFCSSTPDNVSWRHPTMGSVFIGRLIEHMQEYACSCDVEEIFRKVRFSFEQPDGRAQMPTTERVTLTRCFYLFPGH
notes: also called Flag-caspase 1

binding result [2]: binds
B3: MEKK3 (mouse, endogenous in BMDMs) (enzyme, UniProt Q61084 1-626, looked up)
chain: MDEQEALDSIMKDLVALQMSRRTRLSGYETMKNKDTGHPNRQSDVRIKFEHNGERRIIAFSRPVRYEDVEHKVTTVFGQPLDLHYMNNELSILLKNQDDLDKAIDILDRSSSMKSLRILLLSQDRNHTSSSPHSGVSRQVRIKPSQSAGDINTIYQAPEPRSRHLSVSSQNPGRSSPPPGYVPERQQHIARQGSYTSINSEGEFIPETSEQCMLDPLSSAENSLSGSCQSLDRSADSPSFRKSQMSRARSFPDNRKECSDRETQLYDKGVKGGTYPRRYHVSVHHKDYNDGRRTFPRIRRHQGNLFTLVPSSRSLSTNGENMGVAVQYLDPRGRLRSADSENALTVQERNVPTKSPSAPINWRRGKLLGQGAFGRVYLCYDVDTGRELASKQVQFDPDSPETSKEVSALECEIQLLKNLQHERIVQYYGCLRDRAEKILTIFMEYMPGGSVKDQLKAYGALTESVTRKYTRQILEGMSYLHSNMIVHRDIKGANILRDSAGNVKLGDFGASKRLQTICMSGTGIRSVTGTPYWMSPEVISGEGYGRKADVWSLGCTVVEMLTEKPPWAEYEAMAAIFKIATQPTNPQLPSHISEHGRDFLRRIFVEARQRPSAEELLTHHFAQLVY
notes: Endogenous protein in mouse BMDM lysates; also called Map3k3

The next lines start with the binder.

B2: AIM2 (human, full length) (other, UniProt O14862 1-343, looked up)
chain: MESKYKEILLLTGLDNITDEELDRFKFFLSDEFNIATGKLHTANRIQVATLMIQNAGAVSAVMKTIRIFQKLNYMLLAKRLQEEKEKVDKQYKSVTKPKPLSQAEMSPAASAAIRNDVAKQRAAPKVSPHVKPEQKQMVAQQESIREGFQKRCLPVMVLKAKKPFTFETQEGKQEMFHATVATEKEFFFVKVFNTLLKDKFIPKRIIIIARYYRHSGFLEVNSASRVLDAESDQKVNVPLNIIRKAGETPKINTLQTQPLGTIVNGLFVVQKVTEKKKNILFDLSDNTGKMEVLGVRNEDTMKCKEGDKVRLTFFTLSKNGEKLQLTSGVHSTIKVIKAKKKT
notes: also called Flag-AIM2; GFP-AIM2
binding result (ATG9A (human)): binds

Binder: B4
binding result (ULK1): binds
